According to patent US20170204184A1 (CB THERAPEUTICS, published 2017):

Key:
[1] = molecular target: T1, hPD-L1-hFc (human); assay: ELISA, coated PD-L1-hFc
T1 construct: it may hold a signal peptide ('open reading frame of the extracellular domain'); also called PD-L1-hFc protein; human PD-L1 extracellular domain fused with human Fc tag
Method: ELISA binding analyses were conducted based on human PD-L1-mFc (for chimeric and humanized antibody detection) and PD-L1-hFc protein (for hybridoma antibody detection). 96-well plates (Costar, Cat No: 9018) were coated with 100 μL of 2 μg/ml PD-L1-mFc (Crownbio) in coating buffer PBS (Hyclone, Cat No: SH30256.01B) overnight at 4° C. The wells were aspirated and non-specific binding sites were blocked by adding 200 μL of blocking buffer (PBS with 1% (w/v) of bovine serum albumin (BSA, Roche, Cat No:738328)) and incubating for 1 hour at 37° C. After the plates were washed three times with wash buffer (PBS with 0.05% (v/v) Tween20 (Sigma, Cat No:P1379)), 100 μL/well of 1:10 serial dilutions of hybridoma (FIG. 1), chimeric (FIG. 2), or humanized (FIG. 3) anti-PD-L1 antibodies in blocking buffer (starting from 20 μg/mL) were added and incubated at room temperature for 1 hour. The plates were washed and incubated with 100 μL/well of Goat anti-Mouse IgG (H+L) (Thermo, Cat No: 31432) in blocking buffer for 60 min. After the plates were washed, 100 μL/well of substrate solution TMB (eBioscience, Cat No: 00-4201-56) were added and the plates were incubated for 2 min at room temperature. 100 μL/well of stop solution (2N H₂SO₄) was added to stop the reaction. The colorimetric signals were developed and read at 450 nm using an Auto Plate SpectraMax Plus (Supplier: Moleculer Devices; Model: MNR0643; Software: SoftMax Pro v5.4). Data were analyzed using GraphPad Prism 5 and EC50 was calculated (FIGS. 1-3; Tables 5-7).

[2] = molecular target: T2, biotinylated human PD-L1-mFc (human, biotinylated (sites not given)); assay: competition ELISA: blocks PD-L1-mFc-biotin binding to coated PD-1-hFc
T2 construct: also called PDL-1-mFc-biotin
Method: The wells were aspirated and non-specific binding sites were blocked by adding 200 μL of blocking buffer (PBS with 1% (w/v) of bovine serum albumin (BSA, Roche, Cat No:738328)) and incubating for 1 hour at 37° C. After the plate was washed three times with wash buffer (PBS with 0.05% (v/v) Tween20 (Sigma, Cat No:P1379)), 100 μL/well of 1:3 serial dilutions of hybridoma (FIG. 4), chimeric (FIG. 5), or humanized (FIG. 6) anti-PD-L1 antibodies in blocking buffer (starting from 20 μg/mL) were added and incubated at 37° C. for 1 hour. […] After the plate was washed 3 times, secondary antibody (Avidin HRP eBioscience cat No.: E07418-1632, 1:500, 100 μl/well) was added and incubated at 37° C. for 0.5 hour. After the plate was washed, 100 μL/well of substrate solution TMB (eBioscience, Cat No: 00-4201-56) was added and the plate was incubated for 3min at room temperature. 100 μL/well of stop solution (2N H₂SO₄) was added to stop the reaction. The colorimetric signals were developed and read at 450 nm using an Auto Plate SpectraMax Plus (Supplier: Moleculer Devices; Model: MNR0643; Software: SoftMax Pro v5.4). Data were analyzed using GraphPad Prism 5 and IC50 was calculated (FIGS. 4-6; Tables 8-10).

[3] = molecular target: T3, PD-L1 on 293T cells (UniProt Q9NZQ7 19-290); assay: flow cytometry competition: blocks biotin-labeled PD-1 binding to PD-L1-293T cells
T3 construct: whole, on cells; also called PD-L1-293T; 293T-PD-L1 cells
Method: Briefly, PD-L1-293T cells were suspended in FACS buffer (PBS with 3% fetal calf serum). Various concentrations of the hybridoma (FIG. 10), chimeric (FIG. 11), or humanized (FIG. 12) anti-PD-L1 antibodies were added to the cell suspension and incubated at 4° C. for 60 minutes in 96 well plates. […] The cells were washed 3 times with PBS and incubated with mouse anti-biotin PE (Biolegend, cat# 409004). The cell-associated fluorescence was then detected by flow cytometry analysis using FACS array.

[4] = molecular target: T4, Human PD-L1 (human, UniProt Q9NZQ7 19-238, limits assumed); assay: SPR (Biacore 3000), antibody captured, PD-L1 as analyte, 1:1 fit
T4 construct: also called PD-L1 analyte (Biacore); hPD-L1
Method: The binding kinetics between PD-L1 and PD-L1 antibodies were measured by Biacore analysis, which was performed at 25° C. on a Biacore3000 instrument and recorded with a data collection rate of 1 Hz. Polyclonal rabbit anti-mouse IgG (GE, BR-1008-38) was diluted with 10 mM pH 5.0 sodium acetate and immobilized onto reference and experiment flow cells of a CM5 biosensor chip to around 15000 RU using an amine coupling kit (GE, BR10050). […] PD-L1 analyte series were prepared by diluting the stocks with running buffer to 100 nM followed by 2× serial dilution in the same buffer down to 0.78 nM. Analytes were injected in series over the reference and experiment flow cells for 3 minutes at a flow rate of 30 μL/minute. Running buffer (PBS with 0.05% P20) was allowed to flow over for 10 minutes at a flow rate of 30 μL/minute. At the end of each cycle, the biosensor surface was regenerated with 3 minutes injection of 10 mM pH1.7 Glycine-HCl buffer at a flow rate of 10 μL/minute. For each analyte sample injection (i.e. each cycle), binding responses obtained from the experimental biosensor surface were double referenced by subtracting simultaneously recorded responses from the reference surface followed by additional subtraction of responses from a single referenced running buffer sample. The association and dissociation rate constants (ka and kd) were determined simultaneously by fitting double-referenced sensorgrams of the entire titration series to Langmuir model (1:1) using Biaevaluation 4.0 software. The dissociation constant, KD, was calculated from the determined rate constants by the relation KD=kd/ka.

[5] = molecular target: T3, PD-L1 on 293T cells; assay: flow cytometry on PD-L1-293T cells
Method: Cell binding analyses of anti-PD-L1 antibodies were performed based on binding to a 293T cell line stably expressing PD-L1 (PD-L1-293T). 2×10⁵ 293T-PD-L1 cells were added into each well of 96-well culture plates and incubated with the indicated antibody (20 μg/ml with the dilution of 1:5) at 4° C. for 1 h. After the cells were washed three times with FACS buffer, the secondary antibody (PE Goat anti-mouse: 1:200; PE mouse anti-human: 1:10) was added to the cells at 100 μl/well, and incubated at 4° C. for 40 min. Cells were washed three times with FACS buffer and analyzed by FACS Array.

T4 sequence (Q9NZQ7 19-238 limits assumed): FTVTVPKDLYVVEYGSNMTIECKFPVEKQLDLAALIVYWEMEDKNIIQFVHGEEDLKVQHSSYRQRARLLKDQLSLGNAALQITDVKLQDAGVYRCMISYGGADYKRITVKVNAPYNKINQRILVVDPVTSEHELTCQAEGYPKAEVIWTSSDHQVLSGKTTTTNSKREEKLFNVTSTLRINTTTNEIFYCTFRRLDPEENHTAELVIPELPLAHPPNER
T3 sequence (Q9NZQ7 19-290 limits assumed): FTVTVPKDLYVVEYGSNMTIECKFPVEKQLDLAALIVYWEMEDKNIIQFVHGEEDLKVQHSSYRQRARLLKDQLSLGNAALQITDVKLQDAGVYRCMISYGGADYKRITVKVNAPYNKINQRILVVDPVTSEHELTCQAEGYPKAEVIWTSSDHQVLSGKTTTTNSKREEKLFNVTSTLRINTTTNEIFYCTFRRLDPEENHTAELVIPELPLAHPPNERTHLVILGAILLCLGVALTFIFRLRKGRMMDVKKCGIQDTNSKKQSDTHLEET
T2 sequence (chain, as listed by the source limits assumed): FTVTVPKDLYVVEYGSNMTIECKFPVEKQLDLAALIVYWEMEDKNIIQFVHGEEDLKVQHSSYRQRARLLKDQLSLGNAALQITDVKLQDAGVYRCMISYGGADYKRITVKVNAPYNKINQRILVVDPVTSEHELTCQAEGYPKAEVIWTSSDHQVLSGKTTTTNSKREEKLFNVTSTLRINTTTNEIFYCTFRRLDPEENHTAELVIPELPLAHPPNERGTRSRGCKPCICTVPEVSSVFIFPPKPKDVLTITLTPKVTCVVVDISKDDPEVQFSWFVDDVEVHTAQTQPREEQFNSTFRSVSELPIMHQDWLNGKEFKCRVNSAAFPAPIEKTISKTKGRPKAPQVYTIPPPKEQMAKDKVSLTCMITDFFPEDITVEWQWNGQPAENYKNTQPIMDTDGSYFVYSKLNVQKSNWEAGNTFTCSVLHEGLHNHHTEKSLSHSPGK
T1 sequence (chain, as listed by the source limits assumed): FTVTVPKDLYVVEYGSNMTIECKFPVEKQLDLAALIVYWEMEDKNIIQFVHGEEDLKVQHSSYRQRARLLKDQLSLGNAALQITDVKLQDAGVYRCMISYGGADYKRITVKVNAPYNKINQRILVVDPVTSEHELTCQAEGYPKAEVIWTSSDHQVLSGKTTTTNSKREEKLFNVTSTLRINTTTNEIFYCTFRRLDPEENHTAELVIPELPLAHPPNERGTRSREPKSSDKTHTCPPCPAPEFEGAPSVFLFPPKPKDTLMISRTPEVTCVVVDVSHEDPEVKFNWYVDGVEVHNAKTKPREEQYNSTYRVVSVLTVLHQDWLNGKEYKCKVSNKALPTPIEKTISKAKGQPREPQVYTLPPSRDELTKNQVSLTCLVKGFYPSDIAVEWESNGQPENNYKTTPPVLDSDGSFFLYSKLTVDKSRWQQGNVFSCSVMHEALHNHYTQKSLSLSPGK

Binder	EC50 [1] [µg/mL]	IC50 [2] [µg/mL]	IC50 [3] [µg/mL]	Kd [4] [nM]	EC50 [5] [µg/mL]
m7B4 (antibody, V domains shown, Murine hybridoma IgG (printed 'mIgG'); also called 7B4-mIgG; 7B4 murine) VH: EVKLFESGGGLVQPGGSLKLSCVASGFDFSTYWMHWVRQAPGQGLEWIGQINPDSTTINYAPSLKDRFIISRDNAKNTLFLQMSKVRSEDTALYYCAKPGDYGYDFDCWGQGTTLTVSS VL: DVLMTQTPLYLPVSLGDQASISCRSSQIIVHSNANTYLEWFLQKPGQSPKLLIYKVSNRFSGVPDRFSGSGSGTDFTLKISRVEAEDLGVYYCFQGSHVPYTFGGGTKLEIK	0.0314	0.892	0.0381	6.01	0.0474
m8H4 (antibody, V domains shown, Murine hybridoma IgG (printed 'mIgG'); also called 8H4-mIgG; 8H4 murine) VH: EVKLVESGGGLVKPGGSLKLSCAASGFTFRSYGMSWARQIPEKRLEWVASISSGGTTYYLGSVQGRFTISRDNARNILYLQMSSLRSEDTAMYYCARGYDAGFAYWGQGTLVSVSE VL: DIVLTQSPASLAVSLGQRATISCRASQSVSTSSYSYMHWYQQKPGQPPKLLIKYASNLESGVPARFSGSGSGTDFTLNIHPVEEEDTATYYCQNSWEIPYTFGGGTKLEIK	0.029	0.788	0.0306	4.56	0.0435
ch13C5 (antibody) VH: EVKLVESGGGLVKPGGSLKLSCAASGFIFRSYGMSWVRQTPEKRLEWVASISSGGSTYYPDSVKGRFTISRDNARNILYLQMSSLRSEDTAMYDCARGYDSGFAYWGQGTLVTVSE light: not shown	–	–	–	2.28	–
m5G11 (antibody, V domains shown, Murine hybridoma IgG (printed 'mIgG'); also called 5G11-mIgG; 5G11 murine) VH: QVQLKQSGPGLVQPSQSLSITCTVSGFSLTTYGVHWVRQSPGKGLEWLGVIWRGVTTDYNAAFMSRLTITKDNSKSQVFFKMNSLQANDTAIYYCARLGFYAMDYWGQGTSVTVSS VL: SIVMTQTPKFLLVSAGDRVTITCKASQSVSNDVAWYQQKPGQSPKLLIYYAANRYTGVPDRFTGSGYGTDFTFTISIVQAEDLAVYFCQQDYTSPYTFGGGTKLEIK	0.0459	0.71	0.0163	0.19	0.0359
ch5G11 (antibody, Mouse VH linked to a human constant region) VH: QVQLKQSGPGLVQPSQSLSITCTVSGFSLTTYGVHWVRQSPGKGLEWLGVIWRGVTTDYNAAFMSRLTITKDNSKSQVFFKMNSLQANDTAIYYCARLGFYAMDYWGQGTSVTVSS light: SIVMTQTPKFLLVSAGDRVTITCKASQSVSNDVAWYQQKPGQSPKLLIYYAANRYTGVPDRFTGSGYGTDFTFTISIVQAEDLAVYFCQQDYTSPYTFGGGTKLEIKRTVAAPSVFIFPPSDEQLKSGTASVVCLLNNFYPREAKVQWKVDNALQSGNSQESVTEQDSKDSTYSLSSTLTLSKADYEKHKVYACEVTHQGLSSPVTKSFNRGEC	–	–	–	0.286	–

More lines, in order of falling Kd [4], values ahead:

EC50 [1] [µg/mL]	IC50 [2] [µg/mL]	IC50 [3] [µg/mL]	Kd [4] [nM]	EC50 [5] [µg/mL]	Binder
0.0312	0.613	0.0491	4.78	0.0337	m5G9 (antibody, V domains shown, Murine hybridoma IgG (printed 'mIgG'); also called 5G9-mIgG; 5G9 murine) VH: EVKLVESGGGLVKPGGSLKLSCAASGFTFRSYGMSWVRQTPEKRLEWVASISSGGTTYYPDSVKGRFIISRDNARNILYLQMSSLRSEDTAMYYCAKGYDSGFAYWGQGTLVIVSA VL: DIVLTQSPPSLAVSLGQRATISCRASQSVSTSSSSYMHWYQQKPGQPPKLLIKYASNLESGVPARFSGSGSGTDFTLNIHPVEEEDTATYYCQHSWEIPYTFGGGTKLEIK
0.0576	0.868	0.0291	2.33	0.0678	m4A8 (antibody, V domains shown, Murine hybridoma IgG (printed 'mIgG'); also called 4A8-mIgG; 4A8 murine) VH: QVQLKQSGPGLVQPSQSLSITCTVSGFSLTSYGVHWVRQSPGKGLEWLGVIWSGGITDYNAAFKSRLSISKDNSKSQVFFKMNSLQANDTAIYFCARLGFYAMDYWGQGTSVTVSS VL: QIVLTQSPAIMSASPGEKVTMTCSANSSVSYMHWYQQKSGTSPKRWIYDTSKLASGVPARFSGSGSGTSYSLTISSMGAEDAATYYCQQWSSNPWTFGGGTKLEIK
0.0182	0.344	0.0082	1.53	0.041	m8C6 (antibody, V domains shown, Murine hybridoma IgG (printed 'mIgG'); also called 8C6-mIgG; 8C6 murine) VH: QVQLKQSGPGLVQPSQSLSITCTVSGFSLTSYGVHWVRQSPGKGLEWLGVIWSGGVTDYNAAFISRLSISKDNSKSQVFFKMNSLQANDTAIYYCARLGFYAMDYWGQGTSVTVSS VL: SIVMTQTPKFLLVSAGDRVTITCKASQSVSNDVGWYQQKPGQSPKLLIYYASNRYSGVPDRFTGSGYGTDFTFTISTVQAEDLAVYFCQQDYTSPYTFGGGTKLEIK
0.0651	0.872	0.0289	1.35	0.0453	m13C5 (antibody, V domains shown, Murine hybridoma IgG (printed 'mIgG'); also called 13C5-mIgG; 13C5 murine) VH: EVKLVESGGGLVKPGGSLKLSCAASGFIFRSYGMSWVRQTPEKRLEWVASISSGGSTYYPDSVKGRFTISRDNARNILYLQMSSLRSEDTAMYDCARGYDSGFAYWGQGTLVTVSE VL: DIVLTQSPASLAVSLGQRATISCRASQSVSTSSSSFMHWYQQKPGQPPKLLIKYASNLESGVPARFSGSGSGTDFTLNIHPVEEEDTATYYCQHSWEIPYTFGGGTKLEIKR
